Data from the supplement of paper PMC9170038.

Test system: MS2 coat protein
Assay: apparent KD of MS2 coat protein; designed switch direction (-1 OFF switch, 1 ON switch): 1; higher = weaker reporter binding
Outline: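 Designed RNA switches were transcribed on Illumina chips by stalled E. coli RNA polymerase and titrated with SNAP-549-labelled MS2 coat protein from 0.7 or 1.5 nM, doubling to 3 µM. Step length ran from 0.8–1.5 h at the lowest concentration to 10–20 min at the highest. The apparent KD is the median over clusters for each design, from curve-fitted normalised cluster fluorescence.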

[1] = input ligand: microRNA oligo, concentration not stated

| Sequence | apparent KD of MS2 coat protein [1] [nM] | apparent KD of MS2 coat protein (input ligand: FMN 200 uM) [nM] | apparent KD of MS2 coat protein (input ligand: none) [nM] | apparent KD of MS2 coat protein (Eterna round: R95, input ligand: microRNA oligo, concentration not stated) [nM] |
| --- | --- | --- | --- | --- |
| GUGGUCAGACAUGAGGAUCACCCAUGUGGAAUAAAUAAGGAGAAGGAUAUGGAAUAUAGGAUAUACCAGAAGGUCUGGUUGGUG (Eterna round: R96, puzzle: Same State NG 3) | 55.8 | – | – | – |
| GUGGUCAGACAUGAGGAUCACCCAUGUGGAAUAAAUAAGGAGAAGGAUAUGUAAUAUAGGAUAUAACAGAAGGUUUGGUUGGUG (Eterna round: R96, puzzle: Same State NG 3) | 69.7 | 105 | 96.5 | – |
| GUGGUCAGACAUGAGGAUCACCCAUGUGGAAUAAAUAAGGGUCAGGAUAUGAAAUAUAGGAUAUAUCAGAAGGGAUGGUUGGUG (Eterna round: R96, puzzle: Same State NG 3) | 81.1 | 101 | 90.5 | – |
| GUGGUCAGACAUGAGGAUCACCCAUGUGGAAUAAAUAAGGGUUAGGAUAUCUAAUAUAGGAUAUAAGAGAAGGGAUGGUUGGUG (Eterna round: R96, puzzle: Same State NG 3) | 64.8 | 118 | 96.2 | – |
| GUGGUCUGACAUGAGGAUCACCCAUGUGGAAUAAAUACGGGUUAGGAUAUCUUGAGGAUCACCCAAGAGAAGGGAUGGACCGUU (Eterna round: R96, puzzle: Same State NG 3) | 30.9 | 36.3 | 47.5 | – |
| GUGGUCUGACAUGAGGAUCACCCAUGUGGAAUAAAUACGGGUUAGGAUAUCUUGAGGAUCACCCAAGAGAAGGGAUGGAUGGUC (Eterna round: R96, puzzle: Same State NG 3) | 71 | – | – | – |
| GUGGUGCUUCUAGGAUAUUCAGCGGCCCUCACAUGAGGAUCACCCAUGUUCACAAGAGAAACCAUGAAGAAGGAGAACUACAAU [Eternabot solution 42] (Eterna round: R96, puzzle: Same State NG 2) | 39.9 | 45.6 | 55.8 | – |
| GUGGUGGGUUGAGGAUAUUGGUUGUUGUUGUCCCACAUGAGGAUCACCCAUGUGGGUUGUGGUUUUGAGAAGGUUGGUUGCUGG [salish99_SSNG2_r04_051] (Eterna round: R96, puzzle: Same State NG 2) | 14.4 | – | – | – |
| GUGGUGUAGAUACAGGAUAUGUUGCUCGUAACAUGAGGAUCACCCAUGUAUCUAUGAGAUUAAAUGCAGAAGGGUGCACACCACG [Maerveen] (Eterna round: R96, puzzle: Same State 2) | 220 | 22 | 358 | – |
| GUGGUUCUCGUAGGAUAUGUAGGAUAUCCCUACAUGAGGAUCACCCAUGUUCGCAUGGGAGAAGGACAGAAGGACGAUCGCUAA [pwkr ssNG2 2FMN + 1F5.16] (Eterna round: R96, puzzle: Same State NG 2) | 11.1 | 20.9 | 53.5 | – |
| GUUACAUGAGGAUCACCCAUGUAUGUGUGGGAGUAAGUGUCUUAGGAUAUCUAGAAUUUAAUUUAAGAGAAGGAAGAUUGUUGU [JMF's solution 49] (Eterna round: R96, puzzle: Same State NG 3) | 61 | 104 | 83 | – |
| GUUACAUGAGGAUCACCCAUGUAUGUGUGGGAGUAAGUGUCUUAGGAUAUCUAGCAUUUAAUUUAAGAGAAGGAAGAUUGUUGU [JMF's solution 51] (Eterna round: R96, puzzle: Same State NG 3) | 59.9 | 79.7 | 84.1 | – |
| GUUACAUGAGGAUCACCCAUGUAUGUGUGGGAGUAAGUGUCUUAGGAUAUCUAUCAGUUAAUUUAAGAGAAGGAAGAUUGUUGU [JMF's solution 90] (Eterna round: R96, puzzle: Same State NG 3) | 111 | 126 | 115 | – |
| GUUACAUGAGGAUCACCCAUGUAUGUGUGGGAGUAAGUGUCUUAGGAUAUCUAUCAUUUUAUUUAAGAGAAGGAAGAUUGUUGU [JMF's solution 93] (Eterna round: R96, puzzle: Same State NG 3) | 77.4 | 121 | 111 | – |
| GUUACAUGAGGAUCACCCAUGUAUGUGUGGGAGUAAGUGUCUUAGGAUAUCUAUGAAUUAAUUUAAGAGAAGGAAGAUUGUUGU [JMF's solution 73] (Eterna round: R96, puzzle: Same State NG 3) | 73.3 | 107 | 112 | – |
| GUUACAUGAGGAUCACCCAUGUAUGUGUGGGAGUAAGUGUCUUAGGAUAUCUAUGAUGUAAUUUAAGAGAAGGAAGAUUGUUGU [JMF's solution 76] (Eterna round: R96, puzzle: Same State NG 3) | 128 | 135 | 150 | – |

| Sequence | apparent KD of MS2 coat protein [1] [nM] | apparent KD of MS2 coat protein (input ligand: FMN 200 uM) [nM] | apparent KD of MS2 coat protein (input ligand: none) [nM] | apparent KD of MS2 coat protein (Eterna round: R95, input ligand: microRNA oligo, concentration not stated) [nM] |
| --- | --- | --- | --- | --- |
| GUUACAUGAGGAUCACCCAUGUAUGUGUGGGAGUAAGUGUCUUAGGAUAUCUAUGAUUUAAUUUGAGAGAAGGAAGAUUGUUGU [JMF's solution 87] (Eterna round: R96, puzzle: Same State NG 3) | 76.4 | 88.8 | 102 | – |
| GUUACAUGAGGAUCACCCAUGUAUGUGUGGGAGUAAGUGUCUUAGGAUAUCUAUGAUUUGAUUUAAGAGAAGGAAGAUUGUUGU [JMF's solution 78] (Eterna round: R96, puzzle: Same State NG 3) | 80.9 | 122 | 110 | – |
| GUUACAUGAGGAUCACCCAUGUAUGUGUGGGAGUAAGUGUCUUAGGAUAUCUAUUAAUUAAAUUAAGAGAAGGAAGAUUGUUGU [JMF's solution 14] (Eterna round: R96, puzzle: Same State NG 3) | 83.7 | 127 | 112 | – |
| GUUACAUGAGGAUCACCCAUGUAUGUGUGGGAGUAAGUGUCUUAGGAUAUCUGUAAUUUAAUUUAAGAGAAGGAAGAUUGUUGU [JMF's solution 31] (Eterna round: R96, puzzle: Same State NG 3) | 94.5 | 128 | 121 | – |
| GUUACAUGAGGAUCACCCAUGUAUGUGUGGGAGUAAGUGUCUUAGGAUAUCUGUUAUUUAAUAUAAGAGAAGGAAGAUUGUUGU [JMF's solution 44] (Eterna round: R96, puzzle: Same State NG 3) | 76.5 | 123 | 108 | – |
| GUUACAUGAGGAUCACCCAUGUAUGUGUGGGAGUAAGUGUCUUAGGAUAUCUGUUAUUUAAUCUAAGAGAAGGAAGAUUGUUGU [JMF's solution 45] (Eterna round: R96, puzzle: Same State NG 3) | 66.7 | 113 | 94.1 | – |
| GUUACAUGAGGAUCACCCAUGUAUGUGUGGGAGUAAGUGUCUUAGGAUAUCUGUUAUUUAAUUUCAGAGAAGGAAGAUUGUUGU [JMF's solution 48] (Eterna round: R96, puzzle: Same State NG 3) | 91.2 | 125 | 105 | – |
| GUUACAUGAGGAUCACCCAUGUAUGUGUGGGAGUAAGUGUCUUAGGAUAUCUGUUUUUUAAUUUAAGAGAAGGAAGAUUGUUGU [JMF's solution 33] (Eterna round: R96, puzzle: Same State NG 3) | 59.6 | 105 | 112 | – |
| GUUACAUGAGGAUCACCCAUGUGUGUGUGGGAGUAAGUGGCUUAGGAUAUCUAUGAUUUAAGUUAAGAGAAGGAAGAUUGUUGU [SS-NG3-LRO02] (Eterna round: R96, puzzle: Same State NG 3) | 204 | 194 | 272 | – |
| GUUACAUGAGGAUCACCCAUGUGUGUGUGGGAGUGAGUGGCUUAGGAUAUCUAUGAUUUUAGUUAAGAGAAGGAGGAUUGUUGU [SS-NG3-LRO06] (Eterna round: R96, puzzle: Same State NG 3) | 322 | 365 | 380 | – |
| GUUAGGAAUCUAGCAAACAUGAGGAUCACCCAUGUAAGUGGGAAGGAUAUGGUACAGAAACUGUACCAGAAGGUCUUAUUGAUU [Omei SS(NG) 3 AV5] (Eterna round: R96, puzzle: Same State NG 3) | 247 | 81.7 | 371 | – |
| GUUAGGAAUCUAGCAUACAUGAGGAUCACCCAUGUAAGUGGGAAGGAUAUGGUACAGAAACUGUACCAGAAGGUCUUAUUGUUU [Omei SS(NG) 3 AV7] (Eterna round: R96, puzzle: Same State NG 3) | 366 | 149 | 330 | – |
| GUUAGGAAUCUAGCCAACAUGAGGAUCACCCAUGUUAGUGGGAAGGAUAUGGUACAGAAACUGUACCAGAAGGUCUUAUUGUUU [Omei SS(NG) 3 AV10] (Eterna round: R96, puzzle: Same State NG 3) | 54.6 | 75.4 | 96.6 | – |
| GUUAUACAUGAGGAUCACCCAUGUCAAUGUAGUCGAGGAUAUGGGCAGCUAUGAGGCGUACUAGAAGGCGAUGAGU [JL-ss1-3.14 ViennaUCT mod] (puzzle: Same State 1) | – | – | – | 122 |
| GUUAUUAAUGCAGGAUAUGAUUAACAUGAGGAUCACCCAUGUGGUGUUGUGAGUAAGGAGAGUGAUCAGAAGGGCAUUUUUUUU [JMF's solution 40] (Eterna round: R96, puzzle: Same State NG 2) | 815 | 890 | 764 | – |
